Values of other authors in publication PMC10518620.

Molecular target: C3aR (Homo sapiens) (UniProt Q16581)
UniProt Q16581, sequence (Q16581 whole entry): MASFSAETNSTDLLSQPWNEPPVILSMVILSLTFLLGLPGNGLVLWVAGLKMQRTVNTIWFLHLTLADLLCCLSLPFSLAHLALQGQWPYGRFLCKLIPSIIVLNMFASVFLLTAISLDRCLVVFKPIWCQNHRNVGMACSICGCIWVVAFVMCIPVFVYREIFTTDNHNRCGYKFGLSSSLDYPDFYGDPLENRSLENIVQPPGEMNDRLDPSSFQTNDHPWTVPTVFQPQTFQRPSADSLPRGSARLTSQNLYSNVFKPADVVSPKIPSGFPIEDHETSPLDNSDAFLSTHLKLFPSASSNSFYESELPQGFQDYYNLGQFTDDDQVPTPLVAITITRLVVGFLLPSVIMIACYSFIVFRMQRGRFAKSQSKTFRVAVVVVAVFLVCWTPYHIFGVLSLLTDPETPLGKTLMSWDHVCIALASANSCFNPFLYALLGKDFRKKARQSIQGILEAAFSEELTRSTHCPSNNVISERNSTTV

Kd: 1 nM
Substance: C3a C3a (from UniProt P01024)
